Reference: PMC10397247

Columns and labels:
Experiment in all cases: two-hybrid library CCmax;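 note: natural log of median RNA to DNA barcode read ratio; higher means stronger binding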
P2-AA-12HAA-H = biological target: T1, P2-AA-12HAA-H; settings: mean of both orientations
T1 chain: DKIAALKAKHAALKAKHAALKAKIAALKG

P9-AA = biological target: T2, P9-AA; settings: mean of both orientations
T2 chain: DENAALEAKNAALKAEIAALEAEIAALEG

P2-AA-12HGe-R = biological target: T3, P2-AA-12HGe-R; settings: mean of both orientations
T3 chain: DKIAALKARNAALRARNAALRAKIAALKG

P2-AA-12HGe-D = biological target: T4, P2-AA-12HGe-D; settings: mean of both orientations
T4 chain: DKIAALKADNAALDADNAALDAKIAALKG

P2-AA-12HGe-Q = biological target: T5, P2-AA-12HGe-Q; settings: mean of both orientations
T5 chain: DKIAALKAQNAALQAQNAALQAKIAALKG

P2-AA-12HAA-D = biological target: T6, P2-AA-12HAA-D; settings: mean of both orientations
T6 chain: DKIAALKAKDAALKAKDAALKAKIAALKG

P2-AA-12HAA-S = biological target: T7, P2-AA-12HAA-S; settings: mean of both orientations
T7 chain: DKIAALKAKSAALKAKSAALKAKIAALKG

zCON9_A = biological target: T8, zCON9_A
T8 chain: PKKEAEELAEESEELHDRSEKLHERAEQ

P3-AA = biological target: T9, P3-AA; settings: mean of both orientations
T9 chain: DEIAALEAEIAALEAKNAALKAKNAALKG

P2-AA-12HGe-S = biological target: T10, P2-AA-12HGe-S; settings: mean of both orientations
T10 chain: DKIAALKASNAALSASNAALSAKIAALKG

P2-AA-1HAA-D = biological target: T11, P2-AA-1HAA-D; settings: mean of both orientations
T11 chain: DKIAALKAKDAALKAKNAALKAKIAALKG

P2-AA-1HAA-H = biological target: T12, P2-AA-1HAA-H; settings: mean of both orientations
T12 chain: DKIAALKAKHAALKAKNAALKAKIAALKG

P7-AA = biological target: T13, P7-AA; settings: mean of both orientations
T13 chain: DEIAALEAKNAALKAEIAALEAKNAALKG

P2-AA-1HAA-I = biological target: T14, P2-AA-1HAA-I; settings: mean of both orientations
T14 chain: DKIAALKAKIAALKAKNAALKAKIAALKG

P2-AA-1HAA-R = biological target: T15, P2-AA-1HAA-R; settings: mean of both orientations
T15 chain: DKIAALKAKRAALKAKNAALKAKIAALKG

P2-AA-12HGe-E = biological target: T16, P2-AA-12HGe-E; settings: mean of both orientations
T16 chain: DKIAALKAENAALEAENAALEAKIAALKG

P2-AA-12HAA-R = biological target: T17, P2-AA-12HAA-R; settings: mean of both orientations
T17 chain: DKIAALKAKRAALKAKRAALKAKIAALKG

P2-AA-1HAA-V = biological target: T18, P2-AA-1HAA-V; settings: mean of both orientations
T18 chain: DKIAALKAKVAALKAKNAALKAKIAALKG

P2-AA-12HGe-A = biological target: T19, P2-AA-12HGe-A; settings: mean of both orientations
T19 chain: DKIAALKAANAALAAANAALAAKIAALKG

P4-AA = biological target: T20, P4-AA; settings: mean of both orientations
T20 chain: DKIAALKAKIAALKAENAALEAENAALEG

P8-AA = biological target: T21, P8-AA; settings: mean of both orientations
T21 chain: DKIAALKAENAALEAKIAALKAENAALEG

P2-AA-1HAA-S = biological target: T22, P2-AA-1HAA-S; settings: mean of both orientations
T22 chain: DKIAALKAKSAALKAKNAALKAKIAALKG

P2-AA-1HGe-W = biological target: T23, P2-AA-1HGe-W; settings: mean of both orientations
T23 chain: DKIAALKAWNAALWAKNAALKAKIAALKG

P2-AA-1HAA-E = biological target: T24, P2-AA-1HAA-E; settings: mean of both orientations
T24 chain: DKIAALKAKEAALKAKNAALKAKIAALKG

P2-AA-1HGe-D = biological target: T25, P2-AA-1HGe-D; settings: mean of both orientations
T25 chain: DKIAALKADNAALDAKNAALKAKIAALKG

P2-AA-12HAA-Y = biological target: T26, P2-AA-12HAA-Y; settings: mean of both orientations
T26 chain: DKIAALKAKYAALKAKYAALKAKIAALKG

P1-AA = biological target: T27, P1-AA
T27 chain: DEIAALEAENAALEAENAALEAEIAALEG

P2-AA-1HGe-Q = biological target: T28, P2-AA-1HGe-Q; settings: mean of both orientations
T28 chain: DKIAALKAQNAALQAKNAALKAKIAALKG

P2-AA-1HGe-T = biological target: T29, P2-AA-1HGe-T; settings: mean of both orientations
T29 chain: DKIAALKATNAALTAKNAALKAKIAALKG

P2-AA-1HAA-T = biological target: T30, P2-AA-1HAA-T; settings: mean of both orientations
T30 chain: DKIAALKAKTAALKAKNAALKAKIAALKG

P2-AA-12HGe-M = biological target: T31, P2-AA-12HGe-M; settings: mean of both orientations
T31 chain: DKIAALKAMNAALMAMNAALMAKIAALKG

P11-AA = biological target: T32, P11-AA; settings: mean of both orientations
T32 chain: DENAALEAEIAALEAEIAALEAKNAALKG

zCON9_B = biological target: T33, zCON9_B; settings: mean of both orientations
T33 chain: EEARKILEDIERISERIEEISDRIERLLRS

P2-AA-12HGe-T = biological target: T34, P2-AA-12HGe-T; settings: mean of both orientations
T34 chain: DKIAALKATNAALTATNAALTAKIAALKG

P2-AA = biological target: T35, P2-AA; settings: mean of both orientations
T35 chain: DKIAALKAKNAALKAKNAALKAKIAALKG

P2-AA-12HAA-E = biological target: T36, P2-AA-12HAA-E; settings: mean of both orientations
T36 chain: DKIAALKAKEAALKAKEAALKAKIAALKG

P2-AA-12HAA-V = biological target: T37, P2-AA-12HAA-V; settings: mean of both orientations
T37 chain: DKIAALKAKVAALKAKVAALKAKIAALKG

P2-AA-12HGe-H = biological target: T38, P2-AA-12HGe-H; settings: mean of both orientations
T38 chain: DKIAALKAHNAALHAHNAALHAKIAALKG

P2-AA-1HGe-A = biological target: T39, P2-AA-1HGe-A; settings: mean of both orientations
T39 chain: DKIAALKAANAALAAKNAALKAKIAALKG

P10-AA = biological target: T40, P10-AA; settings: mean of both orientations
T40 chain: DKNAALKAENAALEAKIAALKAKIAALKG

P2-AA-12HAA-T = biological target: T41, P2-AA-12HAA-T; settings: mean of both orientations
T41 chain: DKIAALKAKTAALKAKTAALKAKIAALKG

P2-AA-12HAA-K = biological target: T42, P2-AA-12HAA-K; settings: mean of both orientations
T42 chain: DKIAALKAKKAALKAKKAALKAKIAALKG

P2-AA-12HGe-W = biological target: T43, P2-AA-12HGe-W; settings: mean of both orientations
T43 chain: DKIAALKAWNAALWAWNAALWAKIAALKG

P2-AA-1HGe-M = biological target: T44, P2-AA-1HGe-M; settings: mean of both orientations
T44 chain: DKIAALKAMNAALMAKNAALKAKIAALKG

zCON9_D = biological target: T45, zCON9_D; settings: mean of both orientations
T45 chain: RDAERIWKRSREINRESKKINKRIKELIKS

P12-AA = biological target: T46, P12-AA; settings: mean of both orientations
T46 chain: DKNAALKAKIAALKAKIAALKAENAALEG

P2-AA-12HAA-I = biological target: T47, P2-AA-12HAA-I; settings: mean of both orientations
T47 chain: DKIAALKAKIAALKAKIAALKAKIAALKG

P2-AA-12HAA-L = biological target: T48, P2-AA-12HAA-L; settings: mean of both orientations
T48 chain: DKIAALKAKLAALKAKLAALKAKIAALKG

Binder: DEIAALEAENAALEAENAALEAEIAALEG [P1-AA]
- interaction score (P2-AA-12HAA-H): 1.67
- interaction score (P9-AA): -1.49
- interaction score (P2-AA-12HGe-R): 2.37
- interaction score (P2-AA-12HGe-D): -1.71
- interaction score (P2-AA-12HGe-Q): 1.62
- interaction score (P2-AA-12HAA-D): -1.91
- interaction score (P2-AA-12HAA-S): 1.74
- interaction score (zCON9_A): -1.8
- interaction score (P3-AA): -0.804
- interaction score (P2-AA-12HGe-S): 0.568
- interaction score (P2-AA-1HAA-D): 1.71
- interaction score (P2-AA-1HAA-H): 2.1
- interaction score (P7-AA): -1.7
- interaction score (P2-AA-1HAA-I): 2.01
- interaction score (P2-AA-1HAA-R): 1.51
- interaction score (P2-AA-12HGe-E): 0.914
- interaction score (P2-AA-12HAA-R): 1.86
- interaction score (P2-AA-1HAA-V): 1.86
- interaction score (P2-AA-12HGe-A): 1.83
- interaction score (P4-AA): -1.71
- interaction score (P8-AA): -1.57
- interaction score (P2-AA-1HAA-S): 1.81
- interaction score (P2-AA-1HGe-W): 2.42
- interaction score (P2-AA-1HAA-E): 1.78
- interaction score (P2-AA-1HGe-D): 1.9
- interaction score (P2-AA-12HAA-Y): 1.57
- interaction score (P1-AA): -1.9
- interaction score (P2-AA-1HGe-Q): 1.97
- interaction score (P2-AA-1HGe-T): 2.12
- interaction score (P2-AA-1HAA-T): 1.69
- interaction score (P2-AA-12HGe-M): 1.8
- interaction score (P11-AA): -1.27
- interaction score (zCON9_B): -1.67
- interaction score (P2-AA-12HGe-T): 1.19
- interaction score (P2-AA): 2.11
- interaction score (P2-AA-12HAA-E): -0.168
- interaction score (P2-AA-12HAA-V): 1.26
- interaction score (P2-AA-12HGe-H): 2.06
- interaction score (P2-AA-1HGe-A): 2.03
- interaction score (P10-AA): -0.307
- interaction score (P2-AA-12HAA-T): 1.34
- interaction score (P2-AA-12HAA-K): 1.32
- interaction score (P2-AA-12HGe-W): 1.66
- interaction score (P2-AA-1HGe-M): 1.87
- interaction score (zCON9_D): -2.59
- interaction score (P12-AA): -0.335
- interaction score (P2-AA-12HAA-I): 1.38
- interaction score (P2-AA-12HAA-L): 0.342
